These results are taken from the DeepSol protein solubility set.

This series is described as follows: soluble on expression in E. coli; label from the status in PepcDB or PDB records.
Regarding “MGSDKIHHHHHHMAKLKISKKISTALINSLGAGVVPRVGVEYIAVGREKELKSLLQNLDDIAEGVAAFRFIIGNYGSGKSFLLQLIRNRAMEQGFVVADADLSSERRLAGSNNEGVATYRELMSHLATKTRPDGGALVSILEGWINKIQQEVVKETEMRPNDDGFDDQVESKIREVVQYIEGLVHGFDFGSVIIAYWRGYRMDDDNLKNAAMRWLRGEFTTKVEAKAALGVRVIIDDDSWYDYIKLFAKFVAEIGYKGLLILVDEAVHLYQISTTVTREKNYNRLLAMFNDTMQCKAEHLGIVVGGTTKFLEDPKRGLFADQAWQRRTKESRFVAQANVQENSGPVIRLNPLSEAEILTLLQRLAEIHALNFGYEQTLTNRELKEFVQEIINRLGAEALLTPGEIVRDFMSVLNILHQNPGIVFAELIHGSKFKPTAMGKNPNVDENGAAEFSL”, the “soluble on expression in E. coli” value was “not soluble”. In the case of “MDVKWEGFSGVEMEEVKRNVFLTTLEQLKGWARSSSLWPLTFGLACCAIEMMAVGGAHYDLDRFGSFFRASPRQADVMIVSGTVTKKMAPLLRRLYDQMPEPKWVIAMGSCATAGGPYVKSYSVVKGVDQIVPVDVYIPGCPPNPAALIYGIHKLKEKIRLEAKTGKKVL”, the “soluble on expression in E. coli” value was “not soluble”. Consider “MNLFGQKDRGNHVSGVDRGKVIMYGLSTCVWCKKTKKLLTDLGVDFDYVYVDRLEGKEEEEAVEEVRRFNPSVSFPTTIINDEKAIVGFKEKEIRESLGF”, for which the “soluble on expression in E. coli” value is listed as “soluble”. On to “MTYTTRQIGAKNTLEYKVYIEKDGKPVSAFHDIPLYADKENNIFNMVVEIPRWTNAKLEITKEETLNPIIQDTKKGKLKFVRNCFPHHGYIHNYGAFPQTWEDPNVSHPETKAVGDNDPIDVLEIGETIAYTGQVKQVKALGIMALLDEGETDWKVIAIDINDPLAPKLNDIEDVEKYFPGLLRATNEWFRIYKIPDGKPENQFAFSGEAKNKKYALDIIKETHDSWKQLIAGKSSDSKGIDLTNVTLPDTPTYSKAASDAIPPASLKADAPIDKSIDKWFFISGSV”, for which the “soluble on expression in E. coli” value is recorded as “soluble”. Take “VAVGDVDAPVGLVVFSDYQCPFCAKWSDETLPQMMKHVEDGNLRIEWREVNIFGEPSERGARAAYAAGLQDAYLEYHNALFANGEKPSEDLLSEEGLIKLAGDLGLDESKFTADFQSPETAVAIAQHQQLGIDLGAYSTPAFLLGGQPIMGAQPASVFEAAFEQALAAKE”: the “soluble on expression in E. coli” value is given as “not soluble”. With “MKKTLLAIVAVSALSACRQAEEGPPPLPRQISDRSVGHYCSMNLTEHNGPKAQIFLNGKPDQPVWFSTIKQMFGYTKLPEEPKGIRVIYVTDMGNVTDWTNPNADTEWMDAKKAFYVIDSGFIGGMGAEDALPFGNKEQAEKFAKDKGGKVVGFDDMPDTYIFK”, the “soluble on expression in E. coli” value is “not soluble”. Regarding “MSLPEHTPSDRLALDAMLGKLATYLRMCGYDTAYALDRDAEADDDLLDIAEREDRLVITRDSDLATRAPESVLLSEREIEDQLRELADAGFRLSLAPEPDYCGVCNSPVEEVDPVEPTPEYAPSAGDERVWRCTDCGQHFWKGSHWASVEATLEDVEGHHHHHH”, the “soluble on expression in E. coli” value is listed as “soluble”. In the case of “DTETTGLPADETQFISGVDAPAPVSVGWQLLDFRFRCIEEVVCRLSTDEPVSPEAAALHGITDASLHGDDPHEVYARLLGAVSKAKVLSAHNLAFHRSVLVYDMRRRGFDPSPLFSLDDYCTMEAGVDFTHLYGSCGTWKLPRLTELFGVLYFGLPGVRTTYREKVRNDIRLVAACLHRMNPTTPSLE”, the “soluble on expression in E. coli” value is given as “not soluble”. As for “VSNKTYYLVGTSHISENSVKLVKEVIERVQPDTVSIELDKKRYEKYTNSNQWGNTDIIKIIKEKKLVVLISNIVYSAYQKKLANTKGTTQAGELIQAIKSAKEIGANIQLIDRDIQVTFKRMWRHLSFLEKPKLFMTFFTEFDDIEQDKLEEYLESDSFDKVFISLSKKYPSLYQDMITDRDKYMSTKLKNNSSQVNVVVVGKAHMKGIKEKLEKRTEFSL”, the “soluble on expression in E. coli” value was “not soluble”. Then “MGSDKIHHHHHHMMGLKAHAMVLEKFNQPLVYKEFEISDIPRGSILVEILSAGVCGSDVHMFRGEDPRVPLPIILGHEGAGRVVEVNGEKRDLNGELLKPGDLIVWNRGITCGECYWCKVSKEPYLCPNRKVYGINRGCSEYPHLRGCYSSHIVLDPETDVLKVSEKDDLDVLAMAMCSGATAYHAFDEYPESFAGKTVVIQGAGPLGLFGVVIARSLGAENVIVIAGSPNRLKLAEEIGADLTLNRRETSVEERRKAIMDITHGRGADFILEATGDSRALLEGSELLRRGGFYSVAGVAVPQDPVPFKVYEWLVLKNATFKGIWVSDTSHFVKTVSITSRNYQLLSKLITHRLPLKEANKALELMESREALKVILYPEG”, with “soluble”; and “MGSDKIHHHHHHAQTLPFRLSKGAGTFRLGVVCGNESCWLDQCSVKKKGQAYTIKDKLWKEGEIKLIVCPLTDSNGFIMEVSGERLPEEFKLCWAFGACDGADDSAVTDNSIPVASCFHNVFSIEGNAFTTYYGESMKLRTVHGVSPIGSEIRLSDGHKQASPLALFNSGKKTDAPVISALCPWKPQEKLYFCFYQRGDYNYFMLPGLFGKEHKTRSK”, with “not soluble”; and “MRHREWSRATEGDRTMATTIATLTQKTDGILEGVFATIRVNAPIAIIPNASKSSEEAPDYRVIHRKTGFEIGAGWNRIARQTGEEYLSVKLEAPEIGVIFGNLAPAPGGDPSKKVILWNNPD”, with “not soluble”. As to “MAHHHHHHMEEGGRYAACKAELYKLQEKIKTQETPRDNCAEKEKMWEKQRSELEQEKDECLRTSDAHRTQKQDLEDRVRYMDGLTRAMISEKRFAEERRNISEKENEDLKTRVRVLTHKLGVLTAMVQKLHISHMIKDMGIAMLQAEAKQAAEEMETNHKKDVAAAEERVLQECKEKFCFDSSGNLNAAVFIEHNISKENRSFLLEQLNCSKENQGDTKREWRFWRKGANDSSRPKKSADHSESNGSSHGNNIHLVLRVCLSLLLLTALS”, the “soluble on expression in E. coli” value is on record as “not soluble”. In the case of “MTLNPRQSALVELVRTQGSATIEALARHFDVTLQTVRRDVNLLSEAGMLSRFHGGVRIESSTIENIAYRKRQGLHAEGKRRIAEAVARAVPDGCSLLINIGTTTEAIARALLRHRGLRVITNNLHVADILSDNPDCEVIVAGGVVRSRDRGIVGEATLDFIRQFKVDIGLIGISGIEADGTLRDYDFREVRVARAIIEQSREVWLAADSSKFQRQAMVELVHVSRIHRFFTDTQPQEPLAQVLQDAGVRCDVAAQSAGAAAALEHHHHHH”, the “soluble on expression in E. coli” value is “not soluble”. Turning to “MAGDPMNSLIDRRLNGRNKSAVNRERFLRRYKDQIRKAVQDLIRERSISDMDQGGEINLPARDISEPSFRHGEGGDREIVHPGNREFAKGDTFDRPQGGDGGSGSQPGEGESVDQFTFSLSRAEFLNLFFEDLELPHLARTQLGDVKQQRWHRAGYTTTGSPSMLSVNRTLKASLSRRVALGVGARAALDAAEQELEAARDAGAPQAELDRLLAEVEKCAARVARVPFLDDLDLRYRNRVAVAVPMARAVMFCLMDVSGSMDEMKKDLAKRFFTLLYMFLSRKYEHVDVIFIRHTDNAEEVDEQTFFYDPKSGGTIVLSALELMHEIVQKRYSPATWNIYAAQASDGDSFGADAGKSARFLAENLLPATRYFAYIEVPDSQEARKSSLWAEYEQESASHFVMRRICERGEIFPVFHDLFKKETVLEHHHHHH”, the “soluble on expression in E. coli” value is “soluble”. “MGHHHHHHSHMMAALSRKMRVAPFKVGPDYIDPGYHGMAAGHQGRNLDSVMCGIDLIGPLYAHGSANADIAVVEGVMGLFDGRIAQGQNTADAQAQGSSAEIAATLGLPVVLVVDVRGMSQSVGAVVRGFATADPHVRIAGVILNKVGTDRHAEVCREAVEAVGVRVLGAIP”: the “soluble on expression in E. coli” value is “not soluble”. Take “GMKEDTIEIAGFHAHVYFDAASRDVAARVREGLGARFEVQLGRWFDKPIGPHPKGMYQVAFLPNQFDKVVPWLMLNREGLDILVHPETGDAVSDHAVYSLWLGAALALNIEFLRQLSSTSSN”: the “soluble on expression in E. coli” value is “soluble”. As to “MGSDKIHHHHHHGEDSEGSGTSGISPGGNSVSEEVLKHRSMVEKYAKESDILDYVPILLAIIQVESGGTMEDVMQSSESAGLPPNSLSTEASIKQGCIYFASLVKSSKELGCDQDSIIQAYNYGGGYLNYVAKNGKKHSFTLAESFSKEKSGGQKVDYPNPIAIKENGGWRYNYGNMFYCLLVKQYLTTTQFDDKTVQGIFDEAFKYEGTAYVFGGSSPATGFDCSGLTQWCYAKVGLKLPRVAQDQYDVMTHIDLKDAKPGDLIFFHSTYDAGTYVTHVGIYAGENRMFHAGNPVGWTNLTESYWQQHLIGAGRYN”, the “soluble on expression in E. coli” value is listed as “not soluble”.

As to “MSLDSSLFRKPSPRPLRQPTTPFHLQKTLILDLDETLIHSTSRPIHYPGGSSGGGGLLGLSVGGVFGSGRANEGHTVEVVVNGRSTMYHVYKRPYVDHFLKKVASWYTLVIFTASMPEYADPVIDWLDGGRNLFARKLYRENCHVQPNGSYIKDLTLVEKDLSRVCFMDNSPVSYSWNKGRLFSTWRSLEPDRMGTANALPIEGWTSDPNDEALLHSIPVLDSLRFVNDVRRVLGIRGAARARSEGHHHHHH”, the “soluble on expression in E. coli” value was “soluble”. On to “SLVLMSETKNELEDLLEKAATEPAHRPAFFRTLLESTVWVPGTAAQGEAVVEDSALDLQHWEKEDGTSVIPFFTSLEALQQVVEDEQAFVVMPVRTLFEMTLGETLFLNAKLPTGKEFMPREISLLIGEEGNSLSSQEVLEGGESLILSEVAEPPVQMIDSLTTLFKTIKPVKRAFICLIKESEEAQPNLLIGIEADGDIEEIIQAAGSVATDTLPGDEPIDICQVKKGEKGISHFITEHIAPFYERRWGGFLRDFKQNRII”, for which the “soluble on expression in E. coli” value is recorded as “soluble”. Turning to “MQKESQTYKIAPAERLASVSEYYFSKKLKEVAQMNAEGKDVISLGIGSPDMPPSKVTIETLCNNAHDPNGHGYQPYVGIPELRKGFAAWYQRWYGVELNPNTEIQPLIGSKEGILHVTLAFVNPGEQVLVPNPGYPTYTSLSKILGAEVISYDLKEEDGWMPDFEALEKMDLNRVKLMWTNYPNMPTGANATPELYERLVDFARRKNIVIVNDNPYSFILNEKPISILSVPGAKECCIEFNSMSKSHNMPGWRIGMLASNAEFVQWILKVKSNIDSGMFRAMQLAAATALEAEADWYEGNNHNYRGRRHLAGEIMKTLGCTYDENQVGMFLWGKIPASCKDVEELTEKVLHQARVFITPGFIFGSNGARFIRISLCCKDAKLAEALERIKKLS”, the “soluble on expression in E. coli” value is listed as “not soluble”. As for “MGSDKIHHHHHHPEQQVQQFAQLPVGFKNMGNTCYLNATLQALYRVNDLRDMILNYNPSQGVSNSGAQDEEIHKQIVIEMKRCFENLQNKSFKSVLPVVLLNTLRKCYPQFAERDSQGGFYKQQDAEELFTQLFHSMSIVFGDKFSEDFRIQFKTTIKDTANDNDITVKENESDSKLQCHISGTTNFMRNGLLEGLNEKIEKRSDLTGANSIYSVEKKISRLPKFLTVQYVRFFWKRSTNKKSKILRKVVFPFQLDVADMLTPEYAAEKVKVRDELRKVEKEKNEKEREIKRRKFDPSSSENVMTPREQYETQVALNESEKDQWLEEYKKHFPPNLEKGENPSCVYNLIGVITHQGANSESGHYQAFIRDELDENKWYKFNDDKVSVVEKEKIESLAGGGESDSALILMYKGFGL”, the entry is “soluble”; as for “MGHHHHHHAIAENLYFQSKLVEKTTTTEQDNGEDFCRTIIEVSEVNRNVFQAPGGEADPFRVVSGEELHLIPPLNFSMVDNGIFRSGFPDSANFSFLQTLGLRSIIYLCPEPYPESNLQFLKSNGIRLFQFGIEGNKEPFVNIPDHKIRMALKVLLDEKNHPVLIHCKRGKHRTGCLVGCLRKLQKWCLTSIFDEYQRFAAAKARVSDQRFMEIFDVSSFSHIPMSFSCSIR”, “soluble”. As for “MASIKKVYRGMKNGAETINDDLEAINSELTSGGNVVHKTGDETIAGKKTFTGNVEVNGSLTLPVQTLTVEAGNGLQLQLTKKNNDLVIVRFFGSVSNIQKGWNMSGTWVDRPFRPAAVQSLVGHFAGRDTSFHIDINPNGSITWWGANIDKTPIATRGNGSYFIK”, the entry is “soluble”.
